One data set deals with chicks. In words: Chick growth assay (in ovo injection, weight at hatching). Type of data set: in vivo. To be noted: for Chick weight: bovine polypeptides in conditioned media, 1 ml in ovo on day 16 of incubation, weighed on day of hatching, Saline 51.0; for death / overall condition of chick: in ovo injection on day 16 of incubation. The procedure:
FIG. 5. Chick growth assay by measuring weight. 10 LAMs (being bovine homologues having homology to specific Tammar ESTs), 3 known bovine cathelicidins, and four bovine cathelicidin variants were tested. Conditioned media containing a LAM polypeptides or bovine cathelicidins or variants thereof was diluted in a total of 1 ml of normal saline. Eggs on day 16 of incubation were injected with 1 ml of the media containing the into the broad end of the egg. Chicks were weighed on day of hatching. The overall condition of the chick was assessed including the possible presence of stumpy legs and/or loss of down feathers.
Conditioned media containing LAM polypeptides or bovine cathelicidins or variants thereof were diluted in a total of 1 ml of normal saline. Eggs on day 16 of incubation were injected in ovo with 1 ml of LAM polypeptides or bovine cathelicidins or variants thereof into the broad end of the egg. Chicks were weighed on day of hatching. Controls included saline only, or saline and 10 mg/ml of a peptide as a random peptide control.
As set out in Table 23, the left column indicates the polypeptide used in the assay while the right column contains chick weight in grams as a measurement of chick growth. Bolded numbers represent a chick(s) larger than the controls and more than 2 standard deviations from the mean. In addition, bolded numbers represent chicks that have been killed. The mean represents the weight of all the chicks tested within this experiment.

The test system of a further data set is AGS cells. As to the kind of experiment: Cell growth using bovine cathelicidin variants in AGS cells (SRB assay). Further details: unit not given here. The conditions noted are these: 72 hours; for cell growth Replicate 3: -ve control 0.233; for cell growth Replicate 1: -ve control 0.247; for cell growth Replicate 4: -ve control 0.265; for cell growth Replicate 2: -ve control 0.316; for cell growth Mean: -ve control mean 0.265. Type of data set: cell-based, human. As to the method:
A cellular growth assay was performed using seven bovine cathelicidin (CATHL) variants, namely CATHL1, 4, and 6 which are known in the art (the relevant sequences can be obtained using the following hyperlink: http://www.ncbi.nlm.nih.gov/entrez/query.fcqi?db=unigene&cmd=search&term=cathelicidin) and bovine Cathelicidins 8, 9, 10 and 11 (being LAMs 32.8, 32.9, 32.10 and 32.11, respectively) as identified herein and which are derived from LAM 32. The bovine cathelicidin associated LAMs were derived by sequence comparison to the tammar polynucleotide sequence of LAM 32.
The growth rate of AGS cells was assessed in the presence of the cathelicidins. Equal numbers of human gastric epithelial AGS cells were cultured in either control media or media conditioned with bovine cathelicidins for 72 hours in a 1:10 dilution of serum and antibiotic-free Optimem. Cells were then fixed and a Sulforhodamine B (SRB) colorimetric assay was undertaken as described in Journal of Immunological Methods 208: 151-158, K. T. Papazisis, G. D. Geromichalos, K. A. Dimitriadis, A. H. Kortsaris (1997), ‘Optimization of the sulforhodamine B colorimetric assay’.
Briefly, cells were fixed directly by incubation with 10% trichloroacetic acid for 1 hour at 4° C., washed with water, air-dried overnight and then stained with 0.4% w/v sulforhodamine B, 1% acetic acid solution for 10 minutes at room temperature. Cell were again washed with 1% acetic acid and air-dried, then counted in triplicate.
(Sulforhodamine B stains cellular protein and so reports cell mass.)

The next data set deals with mouse ES cells. As to the kind of experiment: Cell growth with cathelicidins in mouse ES cells. Type of data set: cell-based. Further details: cell growth Rep. 1 / cell growth Rep. 2 / cell growth Rep. 3 / cell growth Mean: unit not given here. The conditions noted are these: 24 hours; for cell growth Rep. 1: 1:10 dilution conditioned media, -ve control 0.34; for cell growth Rep. 3: -ve control 0.352; for cell growth Rep. 2: -ve control 0.474; for cell growth Mean: -ve control mean 0.388666667. As to the method:
Mouse ES cells were plated at 50 percent confluency and cultured for 24 hours in a 1:10 dilution of serum and antibiotic free Optimem and media conditioned with cathelicidin associated polypeptides. The medium was removed and then washed gently for 2 minutes with Mg^2+- and Ca^2+-free phosphate buffered saline 0.05% Trypsin and 1:5000 Versene to disrupt cell aggregates. Cells were collected by scraping and washed twice by resuspension in complete medium followed by centrifugation. The cells were again resuspended and counted in triplicate using a Luber haemocytometer.
(§1) The cells were counted in triplicate using a Luber haemocytometer. The negative control was media alone (i.e. conditioned media […] insertless vector). The samples were deemed statistically significant using a t-test comparing the control with the sample if the values of cell growth were 2 standard deviations higher than the mean of the negative control.

The next data set concerns HC11 cells. In words: Cell growth with cathelicidins in HC11 cells. Further details: cell growth Rep. 1 / cell growth Rep. 2 / cell growth Rep. 3 / cell growth Rep. 4 / cell growth Mean: unit not given here. Type of data set: cell-based, mouse. To be noted: 72 hours; for cell growth Rep. 1: 1:10 dilution conditioned media, -ve control 0.727; for cell growth Rep. 2: -ve control 0.76; for cell growth Rep. 3: -ve control 0.786; for cell growth Rep. 4: -ve control 0.808; for cell growth Mean: -ve control mean 0.77025; for cell growth versus control (significance): P<0.05 t-test. The procedure:
FIG. 2. Cellular growth assay with HC11 cells. Mouse mammary epithelial cells, HC11 cells, were grown in media conditioned with: mock transfection (control), LAM32, LAM32a or LAM32b for 72 hours. Samples were performed in triplicate and the cells from each triplicate counted in triplicate. […] LAM 32 is represented as set forth in SEQ ID NO: 188, and two splice variants thereof, designated LAM32a and 32b as set forth in SEQ ID NO: 215 and 207 respectively.
As shown in FIG. 2 equal numbers of mouse mammary HC11 cells were grown in the presence of either a negative control or tammar wallaby cathelicidin-associated polypeptide, namely LAM 32 (SEQ ID NO: 188), LAM 32a (SEQ ID NO: 215) or LAM 32b (SEQ ID NO: 207) in order to determine the effect of these LAMs on cellular growth.
HC11 cells were initially plated at 50 percent confluency and cultured for 72 hours in a 1:10 dilution of serum and antibiotic free Optimem and media conditioned with cathelicidin associated polypeptides. The medium was removed and then washed gently for 2 minutes with Mg^2+- and Ca^2+-free phosphate buffered saline (PBS), 0.05% Trypsin and 1:5000 Versene to disrupt cell aggregates. Cells were collected by scraping and washed twice by resuspension in complete medium followed by centrifugation. The cells were again resuspended and counted in triplicate using a Luber haemocytometer.
as §1

With “CATHL4: bovine cathelicidin 4, known in the art (ILPWKWPWWPWRR; UniProt P33046 131-143, looked up) [reference compound]”, the Chick weight in the data set on chicks amounted to 49.7 grams. In addition, in the data set with AGS cells, the “cell growth Replicate 3” value amounted to 0.409, the “cell growth Replicate 1” value is given as 0.626, the “cell growth Replicate 4” value is on record as 0.500 and the “cell growth Replicate 2” value is 0.465. The “cell growth Mean” value with AGS cells is 0.500.

B1: LAM 32a: splice variant of tammar wallaby LAM 32, SEQ ID NO 215 (protein)
chain: MRDSTMQVLLLVLGLLSLMTSLACAQDQPYQDVLNRFIQEYNTKSESESLFRLSVLNLPPEESNDPAVPLLKFTIRETVCPKTEHRNADECDFKKNGLVKQCIGTIDLDSPNPSVDISCDRPAKVKRGLWESLKRKATKLGDDIRNTLRNFKIKFPVPRQG
With B1, in the data set with mouse ES cells, the “cell growth versus control (significance)” value is listed as “significantly different growth from the control”, the “cell growth Rep. 1” value was 0.575, the “cell growth Rep. 3” value is 0.517 and the “cell growth Rep. 2” value amounted to 0.605. For the same molecule, the “cell growth Mean” value with mouse ES cells worked out at 0.5657. Besides, in the data set with HC11 cells, the “cell growth Rep. 1” value worked out at 0.958, the “cell growth Rep. 2” value is recorded as 0.977, the “cell growth Rep. 3” value stood at 1.008 and the “cell growth Rep. 4” value worked out at 1.102. Moreover, in the data set with HC11 cells, the “cell growth Mean” value was determined as 1.011 and the “cell growth versus control (significance)” value is reported as “significantly more cells”.

B2: LAM 32.10: bovine cathelicidin variant, SEQ ID NO 175 (protein)
chain: METQRASLSLGRWSLWLLLLGLVLPSASAQALSYREAMLRAVDQLNERSSEAHLYRLLELDPPPDMSWGGDRGRAFLLPALATLLPLHSGCTSCQEGTFPSRWVPTSSRKASQTWVISQHQASCLSISAVGIGTLHTWLKFPGLLGAPGMGGS
The molecule B2 yielded a Chick weight in the data set with chicks of 53.8 grams. Moreover, in the data set with AGS cells, the “cell growth Replicate 3” value is 0.534, the “cell growth Replicate 1” value amounted to 0.602, the “cell growth Replicate 4” value is recorded as 0.514 and the “cell growth Replicate 2” value is given as 0.405. Further, the “cell growth Mean” value in the data set on AGS cells worked out at 0.514.

B3: LAM 32.9: bovine cathelicidin variant, SEQ ID NO 173 (protein)
chain: METPRASLSLGRCSLWLLLLGLVLPSASAQALSYREAVLRAVDQFNERSSEANLYRLLELDPTPNDVSYEGIWAGRPASWGAGRQIRGRRMSPNPVSPTLTHDQDLDPGTRKPVSFRVKETDCPRTSQQPLEQCDFKENGVSLGAGEKNGRCFPGIGQRAWGRLPIPGRRPGGYGHRGFSLTLNLPFQLVKTVCGTARHQHN
Consider B3, for which, in the data set with chicks, the Chick weight was 46.5 grams; the “death / overall condition of chick” value is “caused stumpy legs and loss of down”. Also, in the data set with AGS cells, the “cell growth Replicate 3” value amounted to 0.220, the “cell growth Replicate 1” value was determined as 0.246, the “cell growth Replicate 4” value worked out at 0.229 and the “cell growth Replicate 2” value is given as 0.220. For the same molecule, the “cell growth Mean” value with AGS cells was found to be 0.229.

B4: LAM 32b: splice variant of tammar wallaby LAM 32, SEQ ID NO 207 (protein)
chain: MRGLTMQVLLLVLGLLSLMTPLGYAQDQPYQDVLNRFIQEYNTKSESESLFRLSVLNLPSQESNDPTAPQLLKFTIRETVCSKSEHRNPEECDFKKNGVRVSWAGKGF
As for B4, in the data set on mouse ES cells, the “cell growth versus control (significance)” value is reported as “significantly different growth from the control”, the “cell growth Rep. 1” value amounted to 0.676, the “cell growth Rep. 3” value is recorded as 0.693 and the “cell growth Rep. 2” value amounted to 0.677. Moreover, in the data set on mouse ES cells, the “cell growth Mean” value is reported as 0.682. Also, in the data set with HC11 cells, the “cell growth Rep. 1” value turned out to be 0.89, the “cell growth Rep. 2” value was determined as 0.841, the “cell growth Rep. 3” value is given as 0.862 and the “cell growth Rep. 4” value worked out at 0.832. Also, in the data set with HC11 cells, the “cell growth Mean” value is given as 0.8562 and the “cell growth versus control (significance)” value is “significantly more cells”.

B5: LAM 32.11: bovine cathelicidin variant, SEQ ID NO 177 (protein)
chain: METQRASLSLGRWSLWLLLLGLVLPSASAQALSYREAMLRAVDQLNERSSEAHLYRLLGASTRPPSGHELGRGTGDEPFSCPALATLLPLHSGCTSCQEGTFPSRWVPTSSRKAVSRDLGHLPAPGYPCLSISAVGIGTLHTWLRFPGLLGSSRDGGVTGSVR
On to B5, for which the “chick size versus controls” value in the data set on chicks (body weight relative to mean/median of all chicks tested) is “produced a chick larger than the controls”. For the same molecule, the Chick weight in the data set on chicks is listed as 59^ grams. Besides, in the data set on AGS cells, the “cell growth Replicate 3” value amounted to 0.563, the “cell growth Replicate 1” value is reported as 0.365, the “cell growth Replicate 4” value is on record as 0.431 and the “cell growth Replicate 2” value turned out to be 0.366. In addition, in the data set on AGS cells, the “cell growth Mean” value is listed as 0.431.

B6: LAM 32.8: bovine cathelicidin variant, SEQ ID NO 171 (protein)
chain: METPRASLSLGRWSLWLLLLGLALPSAQRPGPQLQGGRASCLMESASMKKSSEANLYRLLELDPPPKEDDENPNIPKPVSFRVKETVCPRTSQQSPEQCDFKENGLLKYCVGTVSRWDQVGSNFDITCAAPQSVGGLQAWVGRYYVLGKSMAQLLFQ
For the molecule B6, in the data set on chicks, the Chick weight result is recorded as “Killed” and the “death / overall condition of chick” value is “caused death of chicks”. For the same molecule, in the data set with AGS cells, the “cell growth Replicate 3” value worked out at 0.261, the “cell growth Replicate 1” value worked out at 0.441, the “cell growth Replicate 4” value is 0.361 and the “cell growth Replicate 2” value amounted to 0.382. In addition, the “cell growth Mean” value in the data set with AGS cells was determined as 0.361.

These data come from US20110201105A1, “LACTATION-ASSOCIATED POLYPEPTIDES” (Dairy Australia Limited, priority 2007, published 2011).
